Source: paper PMC10256740
Read-outs that look alike come from different tables or passages of the source.

Columns and labels:
[1] = target: FLAG-tagged BicD2-Kif1bα tail fusion (mouse) (UniProt Q60575); assay: centrosome recruitment assay with BicD2-kinesin tail fusions (relocalisation in cells, microscopy); N2A cells transfected with FLAG-BicD2-KIF tail fusion and EGFP-tagged RBP (2:3), fixed after 24 h, anti-FLAG staining; read-out log2 of the mean EGFP intensity at the centrosome over the mean intensity in the whole cell
Sequence of FLAG-tagged BicD2-Kif1bα tail fusion (mouse) (Q60575 other isoform, or with tags, fused parts or gaps): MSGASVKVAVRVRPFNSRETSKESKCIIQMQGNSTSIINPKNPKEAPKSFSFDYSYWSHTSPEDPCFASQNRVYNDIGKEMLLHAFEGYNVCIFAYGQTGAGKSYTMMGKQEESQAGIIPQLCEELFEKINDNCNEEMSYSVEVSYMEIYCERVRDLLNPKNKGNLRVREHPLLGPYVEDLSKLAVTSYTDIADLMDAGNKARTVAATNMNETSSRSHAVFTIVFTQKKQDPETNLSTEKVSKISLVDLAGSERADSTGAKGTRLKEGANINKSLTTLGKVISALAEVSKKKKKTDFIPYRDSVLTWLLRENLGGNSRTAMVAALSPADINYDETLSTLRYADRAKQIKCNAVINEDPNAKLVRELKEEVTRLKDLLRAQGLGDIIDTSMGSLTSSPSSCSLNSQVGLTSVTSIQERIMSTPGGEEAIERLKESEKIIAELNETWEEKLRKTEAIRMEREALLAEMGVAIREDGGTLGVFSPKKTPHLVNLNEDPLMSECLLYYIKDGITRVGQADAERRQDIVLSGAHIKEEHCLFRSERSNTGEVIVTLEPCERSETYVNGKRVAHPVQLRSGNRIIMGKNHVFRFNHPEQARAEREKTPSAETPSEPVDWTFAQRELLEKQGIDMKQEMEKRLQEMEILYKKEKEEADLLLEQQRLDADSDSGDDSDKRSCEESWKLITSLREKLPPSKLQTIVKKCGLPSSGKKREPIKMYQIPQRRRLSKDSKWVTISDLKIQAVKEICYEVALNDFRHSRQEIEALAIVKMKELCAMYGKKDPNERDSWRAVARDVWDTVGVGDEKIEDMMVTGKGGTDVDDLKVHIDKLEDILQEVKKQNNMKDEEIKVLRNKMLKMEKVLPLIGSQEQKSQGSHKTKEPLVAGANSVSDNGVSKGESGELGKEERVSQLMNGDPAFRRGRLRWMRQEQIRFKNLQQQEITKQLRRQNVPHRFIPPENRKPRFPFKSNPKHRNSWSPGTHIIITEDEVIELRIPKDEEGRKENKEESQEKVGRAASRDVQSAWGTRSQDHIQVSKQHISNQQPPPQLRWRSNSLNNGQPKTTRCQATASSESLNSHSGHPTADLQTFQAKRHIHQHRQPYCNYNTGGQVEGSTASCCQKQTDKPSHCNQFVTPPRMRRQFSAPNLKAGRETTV

[2] = target: FLAG-tagged BicD2-Kif1c tail fusion (mouse) (UniProt O35071); assay: as above
Sequence of FLAG-tagged BicD2-Kif1c tail fusion (mouse) (O35071 whole entry, the tested form may be a part): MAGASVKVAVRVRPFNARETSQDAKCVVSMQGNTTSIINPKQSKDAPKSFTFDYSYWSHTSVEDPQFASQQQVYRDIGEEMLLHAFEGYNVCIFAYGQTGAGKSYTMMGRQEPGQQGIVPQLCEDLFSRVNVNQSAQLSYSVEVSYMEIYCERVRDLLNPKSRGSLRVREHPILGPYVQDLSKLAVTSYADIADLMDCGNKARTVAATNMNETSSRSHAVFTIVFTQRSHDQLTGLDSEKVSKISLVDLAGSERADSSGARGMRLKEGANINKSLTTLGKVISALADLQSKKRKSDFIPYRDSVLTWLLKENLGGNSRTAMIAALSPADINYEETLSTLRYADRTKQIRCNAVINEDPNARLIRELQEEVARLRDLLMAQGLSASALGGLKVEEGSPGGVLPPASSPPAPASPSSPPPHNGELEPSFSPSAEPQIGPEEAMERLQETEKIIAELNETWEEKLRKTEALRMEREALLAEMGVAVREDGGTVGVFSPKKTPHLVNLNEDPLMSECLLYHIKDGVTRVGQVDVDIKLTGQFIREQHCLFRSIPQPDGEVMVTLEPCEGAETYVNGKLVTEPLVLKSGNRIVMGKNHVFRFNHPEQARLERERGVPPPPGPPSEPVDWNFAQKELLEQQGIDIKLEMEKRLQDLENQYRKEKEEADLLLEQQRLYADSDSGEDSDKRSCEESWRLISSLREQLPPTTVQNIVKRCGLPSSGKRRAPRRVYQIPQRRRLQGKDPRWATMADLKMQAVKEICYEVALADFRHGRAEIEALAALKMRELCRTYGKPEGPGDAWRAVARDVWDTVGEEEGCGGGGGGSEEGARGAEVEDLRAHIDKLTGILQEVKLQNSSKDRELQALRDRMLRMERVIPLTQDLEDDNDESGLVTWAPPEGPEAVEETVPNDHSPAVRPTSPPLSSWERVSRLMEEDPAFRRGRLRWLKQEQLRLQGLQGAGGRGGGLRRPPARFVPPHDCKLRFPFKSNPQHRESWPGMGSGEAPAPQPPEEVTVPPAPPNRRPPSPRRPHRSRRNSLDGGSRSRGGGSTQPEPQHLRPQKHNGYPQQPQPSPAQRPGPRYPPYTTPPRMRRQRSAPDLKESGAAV

[3] = target: FLAG-tagged BicD2-Kif1c tail fusion (mouse) (UniProt O35071); assay: as above; remark: listed apart in the source
[4] = target: mScarlet-I-Kif1c (full-length kinesin) (mouse) (UniProt O35071); assay: co-IP; N2A cells 48 h after co-transfection of EGFP-MBNL1-41 and mScarlet-Kif plasmids; lysis in 10 mM Tris-HCl pH 7.5, 150 mM NaCl, 0.5 mM EDTA, 0.5% NP-40; RFP-Trap magnetic agarose 1 h at 4 °C; western blot, quantitation normalized to input
Sequence of mScarlet-I-Kif1c (full-length kinesin) (mouse) (O35071 whole entry): as the sequence (O35071 whole entry, the tested form may be a part) above

[5] = target: mScarlet-I-Kif1bα (full-length kinesin) (mouse) (UniProt Q60575); assay: as above
Sequence of mScarlet-I-Kif1bα (full-length kinesin) (mouse) (Q60575 other isoform, or with tags, fused parts or gaps): as the sequence (Q60575 other isoform, or with tags, fused parts or gaps) above

Sequence of EGFP-MBNL1-41 (41 kDa isoform of MBNL1) (natural protein) (Q9NR56 whole entry, canonical isoform): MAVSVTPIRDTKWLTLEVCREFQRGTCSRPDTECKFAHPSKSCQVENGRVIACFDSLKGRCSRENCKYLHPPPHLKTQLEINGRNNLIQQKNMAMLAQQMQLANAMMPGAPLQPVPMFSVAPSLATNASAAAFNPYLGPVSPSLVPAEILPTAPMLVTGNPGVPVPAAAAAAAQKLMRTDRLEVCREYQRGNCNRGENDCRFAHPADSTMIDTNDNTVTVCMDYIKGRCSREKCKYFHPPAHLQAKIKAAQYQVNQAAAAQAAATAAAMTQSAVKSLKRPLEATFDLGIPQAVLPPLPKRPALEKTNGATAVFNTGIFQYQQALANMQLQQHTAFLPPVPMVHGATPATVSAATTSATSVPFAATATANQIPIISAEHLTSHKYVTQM
Sequence of EGFP-Cpsf4 (Q8BQZ5 whole entry): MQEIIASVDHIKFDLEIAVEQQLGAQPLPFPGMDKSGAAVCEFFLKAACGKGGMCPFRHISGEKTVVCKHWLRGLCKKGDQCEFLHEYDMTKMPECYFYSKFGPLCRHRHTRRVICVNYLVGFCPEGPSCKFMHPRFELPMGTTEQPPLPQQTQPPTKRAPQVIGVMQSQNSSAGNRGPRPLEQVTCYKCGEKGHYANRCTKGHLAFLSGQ

Row | Substance | log2 mean centrosome recruitment [1] | log2 mean centrosome recruitment [2] | log2 mean centrosome enrichment [3] | fold enrichment of co-precipitated EGFP-MBNL1 as compared to Kif1bβ [4] | fold enrichment of co-precipitated EGFP-MBNL1 as compared to Kif1bβ [5] | log2 mean centrosome enrichment [1] | log2 mean centrosome enrichment [2]
1 | EGFP-Cpsf4 (from UniProt Q8BQZ5 1-211) (natural protein) | 1.71 log2 | 1.52 log2 |  |  |  |  | 
2 | EGFP-MBNL1-41 (41 kDa isoform of MBNL1) (natural protein) |  |  | 0.497 log2 | 10 fold | 10 fold | 0.506 log2 | 0.56 log2
